One substance from patent US11340233B2, “Universal method to capture and analyze ADCs for characterization of drug distribution and the drug-to-antibody ratio in biological samples” (priority 2016, dated 2022) can be followed below.

Data set [1] can be described thus: In vitro stability in cynomolgus monkey serum by total antibody and ADC ELISAs. In kind it is in vitro ADME, Cynomolgus (Macaca fascicularis). Particulars: 37° C., ELISA. As to the method: (§1) ADCs were spiked in sterile mouse, rat or cynomolgus serum at a concentration of 100 μg/ml. Aliquots of 100 μl were incubated at +37° C. in Protein LoBind Tube (Eppendorf, Montesson, France). At specific times (day 1, day 4, day 7 and day 11) samples were removed from the oven and stored at −20° C. until sample processing and analysis.
Four different Ligand Binding Assay (LBAs) systems were used to determine Total Ab or ADC concentrations for ADC1 and ADC2[19]. More precisely, an antigen-specific assay was used for ADC1 and a universal method for ADC2. For the ADC quantification, specific anti-drugs were used relevant to the payload of the ADC.
Briefly, standard microtiter plates (MSD, Gaithersburg, USA) were coated at a concentration of 2 μg/ml Goat anti Human IgG, Monkey adsorbed antibody (SouthernBiotech) for Total Ab or of 3 μg/ml mouse monoclonal antibody raised against the payloads (Epitope Diagnostic Inc.) for ADC assays in PBS. After an overnight incubation at 4° C., plates were treated with blocking buffer (3% MSD Blocker A (MSD, Gaithersburg, USA)) for 1 h at 37° C. In parallel, the standard curves (1000 ng/ml-0.488 ng/ml) using reference immunoconjugates (ADC1 or ADC2) were prepared in assay buffer (1% MSD Blocker in TBS+0.02% Tween 20). Serum samples were diluted to 1:1000 or 1:5000 in a separate 2-ml deep 96-well polypropylene plate in MSD assay buffer. Standards and samples were then loaded onto the assay plate and incubated for 1 h at 37° C. After washing with 1×PBS, the detection step was done using a 2.5 μg/ml solution of the biotinylated antigen for the ADC1 (in house preparation) or a goat anti-human Ig Kappa sulfo-tag solution (in house preparation) diluted to 1 μg/ml in assay buffer for ADC2. After a 30-min incubation at 37° C., and a washing step, the detection was allowed by adding 150 μl of a 2×MSD-read T buffer containing surfactant (MSD, Gaithersburg, USA) just before reading using MSD Sector Imager.
The amount of total antibody and ADC, in serum samples was evaluated in parallel by a quantitative sandwich ELISA. […]

Data set [2] can be described thus: In vitro ADC stability in cynomolgus monkey serum, immunoprecipitation, reduction and LC-MS. In kind it is in vitro ADME, Cynomolgus (Macaca fascicularis). Particulars: spiked 100 μg/mL, 37° C. As to the method:
as §1
ADCs were immunoprecipitated from sera using the following protocol. Briefly, 100 μl M-280 Streptavidin magnetics beads suspension were washed three times with HBS-EP buffer (0.01 M HEPES pH 7.4, 0.15 M NaCl, 3 mM EDTA, 0.005% v/v Surfactant P20) and incubated for 30 min at RT with the CaptureSelect™ Human IgG-Fc PK Biotin conjugate. Serum samples from stability studies were then added to the beads and incubated for 2 h at RT. After washing steps with HBS-EP buffer and HBS buffer (10 mM HEPES, 150 mM NaCl, 3 mM EDTA pH 7.6), the ADC was eluted with 0.4% TFA in water. After freeze drying, the samples were reconstituted and incubated with 34 mM DTT in denaturing buffer (6 M Guanidine, 0.1 M Tris, 2 mM EDTA pH 8.0) for 45 min at 56° C.
Acetic acid was then added to quench the reaction and samples were analysed by LC-MS.
Reverse phase separation was performed on an ultra-high performance liquid chromatography (UHPLC) system (Acquity UPLC H-Class Bio system, Waters) coupled to a Synapt G2si mass spectrometer, instrument control was performed using MassLynx® software (Waters).
The reduced samples were directly injected on a PLRP-S column (2.1×150 mm 8 μm, 1000 Å, Agilent) heated at 80° C. with a flow rate of 0.5 ml/min. Elution was performed with water as eluent A and acetonitrile as eluent B, both containing 0.05% TFA. The following elution gradient was applied, B was raised from 30% to 45% in 13 min and then from 45% to 95% in 2 min. The column was washed using 95% B and equilibrated using 30% B for 10 min. The autosampler temperature was set at 10° C. […]
Data were analysed using Biopharmalynx™ (Waters) software. […]

In the case of Brentuximab vedotin [ADC2], the “ADC level normalized against the total Ab concentration at each time point” value in data set [1] (11 days) is listed as “decreased mainly during the four first days”. In data set [1] (over the 11-day period), the ADC concentration entry is “decreased during this period”. The “total Ab level” value in data set [1] (over the 11-day period) is ~100 µg/mL. The “average DAR” value in data set [2] (day 0) is on record as 4.5; in data set [2] (day 4), 2.0; in data set [2] (days 4 to 11) it was “stable”.
